Reference: article doi:10.1101/2021.09.21.461216 (bioRxiv, 2021)

Target: GST tagged constitutively activated K-Ras4B (GST-K-RasV12) (UniProt P01116-2 1-188, V12)
Assay: pull-down

B1: BRI3BP domain identified in the two-hybrid assay, overexpressed in mammalian cells (domain or fragment, UniProt Q8BXV2 85-253, looked up)
chain: RFVQGVDMFLETLWKVWMELLEVLGLDVSNLSQYFSPASVSNSPTRALVLVGVVLLAYWFLSLTLGFTFSLLHLVFGRFFWLVRVILFSMSCVYILHKYEGEPEHAVLPLCVVVAIYFMTGPMGYWRGSPGGLCSPSVEEKLEHLENQVRLLNIRLNRVLENLDRSKDK
  fold selectivity for K-Ras over H-Ras: ~7 fold
